Source: patent publication US20250223342A1 (ARGENX, published 2025)
Positions count from the first letter of the chain named.

B1: 11C03 CDR1-V2 fused at the C-terminus of Fc-ABDEG (Fc fusion, not shown: a dimerising Fc or GST; small tags and cut ends)
chain: QLQVVESGGGLVQAGGSLRLSCAASERTFVAAPMGWFRQAPEKEREFVAGISWFAGATTDYADSVEGRFTISRDNAKNTAYLQMNNLKPEDTAVYYCAISHQLPGGRPGRDMDSYSYWGHGTQVTVSS
B2: 11C03 CDR2-V2 fused at the C-terminus of Fc-ABDEG (Fc fusion, not shown: a dimerising Fc or GST; small tags and cut ends)
chain: B1 chain with A32Y, I51A
B3: 11C03 CDR2-V4 fused at the C-terminus of Fc-ABDEG (Fc fusion, not shown: a dimerising Fc or GST; small tags and cut ends)
chain: B1 chain with A32Y, W53A
B4: 11C03 CDR2-V7 fused at the C-terminus of Fc-ABDEG (Fc fusion, not shown: a dimerising Fc or GST; small tags and cut ends)
chain: B1 chain with A32Y, G56A
B5: 11C03 CDR2-V5 fused at the C-terminus of Fc-ABDEG (Fc fusion, not shown: a dimerising Fc or GST; small tags and cut ends)
chain: B1 chain with A32Y, F54A
B6: 11C03 CDR1-V3 fused at the C-terminus of Fc-ABDEG (Fc fusion, not shown: a dimerising Fc or GST; small tags and cut ends)
chain: B1 chain with A32Y, P33A
B7: 11C03 CDR2-V3 fused at the C-terminus of Fc-ABDEG (Fc fusion, not shown: a dimerising Fc or GST; small tags and cut ends)
chain: B1 chain with A32Y, S52A
B8: 11C03 CDR2-V12 fused at the C-terminus of Fc-ABDEG (Fc fusion, not shown: a dimerising Fc or GST; small tags and cut ends)
chain: B1 chain with A32Y, Y61A
B9: 11C03 CDR2-V10 fused at the C-terminus of Fc-ABDEG (Fc fusion, not shown: a dimerising Fc or GST; small tags and cut ends)
chain: B1 chain with A32Y, T59A
B10: 2C10 (VHH)
VHH: QLQLVESGGGLVQAGGSLRLSCAASGRTFSSYAMGWFRQAPGKEREFVAVISWSGGSTYYADSVKGRFTISGDNAKNTVYLQMNSLKPEDTAVYYCATEGPKWEPYNGIYSPADFGSWGQGTQVTVSS
B11: 2A10 (VHH)
VHH: EVQLVESGGGLVQAGGSLRLSCAASGRTFSSYAMGWFRQAPGKEREFVATINWSGGSTYYADSVKGRFTISRDNAKNTVYLQMNSLKPEDTAVYYCAADLYGPGFVLSMEYDYWGQGTQVTVSS
B12: 9F02 (VHH)
VHH: EVQLVESGGGLVQAGGSLRLSCTASRRAFIGYAMGWFRQAPGKEREFVAAISWFAGDTTDYADSVKGRFTISRDNAKNTVYLQMNGLKPEDTAVYVCAASSARPMSGRSDEYHYWGQGTQVTVSS
B13: 9E10 (VHH)
VHH: B12 VHH with E1Q, V2L, L4V, A24T, R26G, D63N, G86S, M105L, G107S
B14: 4G12 (VHH)
VHH: QLQLVESGGGLVQAGGSLRLSCVASGRSFSTYGMGWFRQAPGAEREFAAAINWKGDRYYADSVKGRFTISRDNAKNTVFLEMNSLKPEDTGVYYCAADSDGSAFSRRLEYDYWGQGTQVTVSS
B15: 1E04 (VHH)
VHH: QLQLVESGGGLVQTGGSLRLSCAASGRTFSNYNAGWFRQVPGKEPEFVAAINWSGGTTYYADSVKGRFTISRDNAKNTVYLQMNSLKPEDTAVYYCAADPDWSILNPREYDYWGQGTRVTVSS
B16: 11C03 (VHH)
VHH: B1 chain with A32Y
notes: also called 11C03 parental (VHH)
B17: 2B03 (VHH)
VHH: QLQLVESGGGLVQAGGSLRLSCAASGRAISSYVMAWFRQAPGKEREFVTSINWSGGSTYYAHSVKGRFTISRDNAKNTVYLQMNTLKPEDTAVYYCAADLYGLGYEVMSYDYWGQGTQVTVSS
B18: 2H11 (VHH)
VHH: ELQVVESGGGLVQAGGSLRLSCAASGRTFRSNTMGWFRQAPGKEREFVAAITWSGGTTYYADSVKGRFAISGDNAKNTVYLQMNSLKPEDTAVYYCAAEGPKWEPWNGIYHPADFGSWGQGTQVTVSS
notes: also called 2H11 parental (VHH)
B19: 12G03 (VHH)
VHH: QVQLVESGGGLVQAGGSLRLSCAASERAFSHSNMAWFRQAPGKEREFVAHIHWRGSTTYLDSVKGRFTISRDNAKNTVYLQMNGLRLEDTAVYYCAADSARRILVTVSTSYDYWGQGTQVTVSS
B20: 2H11-v12 fused at the C-terminus of Fc-ABDEG (two-armed Fc-ABDEG-20GS-Cterm fusion) (Fc fusion, not shown: a dimerising Fc or GST; large carriers; small tags and cut ends)
VHH: B18 VHH with Y110A
B21: 2H11-v9 fused at the C-terminus of Fc-ABDEG (two-armed Fc-ABDEG-20GS-Cterm fusion) (Fc fusion, not shown: a dimerising Fc or GST; large carriers; small tags and cut ends)
VHH: B18 VHH with N107A
B22: 2H11-v3 fused at the C-terminus of Fc-ABDEG (two-armed Fc-ABDEG-20GS-Cterm fusion) (Fc fusion, not shown: a dimerising Fc or GST; large carriers; small tags and cut ends)
VHH: B18 VHH with P101A
B23: 2H11-v8 fused at the C-terminus of Fc-ABDEG (two-armed Fc-ABDEG-20GS-Cterm fusion) (Fc fusion, not shown: a dimerising Fc or GST; small tags and cut ends)
VHH: B18 VHH with W106A
B24: 2H11-v16 fused at the C-terminus of Fc-ABDEG (two-armed Fc-ABDEG-20GS-Cterm fusion) (Fc fusion, not shown: a dimerising Fc or GST; large carriers; small tags and cut ends)
VHH: B18 VHH with F115A
B25: 2H11-v15 fused at the C-terminus of Fc-ABDEG (two-armed Fc-ABDEG-20GS-Cterm fusion) (Fc fusion, not shown: a dimerising Fc or GST; large carriers; small tags and cut ends)
VHH: B18 VHH with D114A

The binders below were run against T1, cynomolgus monkey serum albumin (cynomolgus monkey, UniProt A2V9Z4 25-608) (assay: SPR (Biacore 3000), cyno albumin on chip, Fc-ABDEG fusion, pH 5.5).
T1 construct: also called cyno albumin; CSA

| Binder | R0 pH 5.5 [RU] |
| --- | --- |
| B1 | 37.8 |
| B2 | 5.22 |
| B3 | 0 |
| B4 | 0 |
| B5 | 0 |
| B6 | 103 |
| B7 | 54.2 |
| B8 | 26 |
| B9 | 105 |

What follows are binders tested against T2, human serum albumin (human, UniProt P02768 25-609) (assay: SPR (Biacore 3000), HSA on chip, Fc-ABDEG fusion, pH 5.5).
T2 construct: also called HSA

| Binder | R0 pH 5.5 [RU] |
| --- | --- |
| B1 | 108 |
| B2 | 15.1 |
| B3 | 12.3 |
| B4 | 4.57 |
| B5 | 12.3 |
| B6 | 109 |
| B7 | 68.5 |
| B8 | 38.7 |
| B9 | 136 |

The binders below were run against T2, human serum albumin (assay: SPR (Biacore), off-rate pH 7.4 over pH 5.5).

| Binder | Ratio Kd |
| --- | --- |
| B10 | 1.3 |
| B11 | 3.3 |
| B12 | 1.6 |
| B13 | 1.7 |
| B14 | 1.8 |
| B15 | 2.1 |
| B16 | 7.7 |
| B17 | 8.7 |
| B18 | 81.9 |
| B19 | 4.1 |

Each binder was assayed against T3, mouse serum albumin (mouse, UniProt P07724 25-608) (assay: species reactivity, screening by ELISA and Biacore).
T3 construct: also called MSA; mouse albumin

| Binder | binding result |
| --- | --- |
| B12 | binds |
| B13 | binds |
| B16 | binds |
| B19 | binds |

Each binder was assayed against T1, cynomolgus monkey serum albumin (assay: species reactivity, screening by ELISA and Biacore).

| Binder | binding result |
| --- | --- |
| B11 | binds |
| B12 | binds |
| B13 | binds |
| B14 | binds |
| B15 | binds |
| B17 | binds |
| B19 | binds |

These binders were tested against T1, cynomolgus monkey serum albumin (assay: SPR (Biacore 3000), albumin on chip, Fc-ABDEG fusion).

| Binder | binding result |
| --- | --- |
| B20 | no binding |
| B21 | no binding |
| B22 | no binding |
| B23 | no binding |
| B24 | no binding |
| B25 | no binding |

Each binder was assayed against T2, human serum albumin (assay: SPR (Biacore), VHH clone, pH 7.4).

| Binder | koff [s⁻¹] |
| --- | --- |
| B10 | 0.0056 |
| B11 | 0.011 |
| B12 | 0.00013 |
| B13 | 0.00412 |
| B14 | 0.0033 |
| B15 | 0.0054 |
| B16 | 0.0039 |
| B17 | 0.025 |
| B18 | 0.052 |
| B19 | 0.00522 |

What follows are binders tested against T2, human serum albumin (assay: SPR (Biacore 3000), HSA on chip, Fc-ABDEG fusion, ratio of R0).

| Binder | R0 5.5/7.4 |
| --- | --- |
| B1 | 19 |
| B2 | 12 |
| B3 | 15 |
| B4 | 4 |
| B5 | 12 |
| B6 | 21 |
| B7 | 28 |
| B8 | 26 |
| B9 | 16 |

Each binder was assayed against T1, cynomolgus monkey serum albumin (assay: SPR (Biacore 3000), cyno albumin on chip, Fc-ABDEG fusion, ratio of R0).

| Binder | R0 5.5/7.4 |
| --- | --- |
| B1 | 17.9 |
| B2 | 4.35 |
| B6 | 19.8 |
| B7 | 20.8 |
| B8 | 19.3 |
| B9 | 18.6 |

The binders below were run against T4, isolated DII of serum albumin (UniProt P02768 211-403, limits assumed) (assay: DII binder column of the clone screening).
T4 construct: domain: DII

| Binder | binding result |
| --- | --- |
| B10 | no binding |
| B11 | no binding |
| B14 | no binding |
| B15 | no binding |
| B17 | no binding |
| B19 | no binding |

Each binder was assayed against T2, human serum albumin (assay: SPR (Biacore 3000), HSA on chip, Fc-ABDEG fusion, pH 7.4).

| Binder | R0 pH 7.4 [RU] |
| --- | --- |
| B1 | 5.82 |
| B2 | 1.22 |
| B3 | 0.826 |
| B4 | 1.12 |
| B5 | 1.06 |
| B6 | 5.1 |
| B7 | 2.4 |
| B8 | 1.5 |
| B9 | 8.6 |

These binders were tested against T1, cynomolgus monkey serum albumin (assay: SPR (Biacore 3000), cyno albumin on chip, Fc-ABDEG fusion, pH 7.4).

| Binder | R0 pH 7.4 [RU] |
| --- | --- |
| B1 | 2.11 |
| B2 | 1.2 |
| B3 | 2.77 |
| B4 | 1.09 |
| B5 | 1.1 |
| B6 | 5.2 |
| B7 | 2.6 |
| B8 | 1.35 |
| B9 | 5.65 |

What follows are binders tested against T2, human serum albumin (assay: SPR (Biacore), VHH clone, pH 5.5).

| Binder | Kd [nM] | koff [s⁻¹] |
| --- | --- | --- |
| B10 | 49.3 | 0.0045 |
| B11 | 96.9 | 0.0034 |
| B12 | 0.575 | 7.8e-05 |
| B13 | 15.4 | 0.00246 |
| B14 | 12.4 | 0.0019 |
| B15 | 55.2 | 0.0026 |
| B16 | 4.12 | 0.00051 |
| B17 | 16.6 | 0.0029 |
| B18 | 6.84 | 0.00063 |
| B19 | 8.14 | 0.00126 |
